Biological target: T1, interferon response factor 3 (IRF3), endogenous in HeLa cells (human, UniProt Q14653 1-427)
T1 construct: Phosphorylation state after poly(I:C) was not defined for the immunoprecipitated material
T1 sequence (looked up): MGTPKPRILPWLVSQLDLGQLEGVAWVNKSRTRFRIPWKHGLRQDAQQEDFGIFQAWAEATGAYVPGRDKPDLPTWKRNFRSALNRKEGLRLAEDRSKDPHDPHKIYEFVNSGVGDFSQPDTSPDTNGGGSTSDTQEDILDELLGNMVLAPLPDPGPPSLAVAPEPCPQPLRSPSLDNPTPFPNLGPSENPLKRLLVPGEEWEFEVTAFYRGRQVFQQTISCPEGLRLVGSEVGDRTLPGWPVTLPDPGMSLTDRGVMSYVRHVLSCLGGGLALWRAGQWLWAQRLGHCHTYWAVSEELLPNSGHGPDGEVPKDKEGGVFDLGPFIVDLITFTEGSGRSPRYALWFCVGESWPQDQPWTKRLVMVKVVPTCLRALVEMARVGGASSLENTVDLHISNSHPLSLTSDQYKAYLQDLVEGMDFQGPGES
Assay: co-immunoprecipitation from HeLa lysates with immobilised anti-IRF3 antibody, western blot, -/+ poly(I:C)
Experimental: Immunoprecipitation and cell fractionation: For immunoprecipitation, 25 μg of antibody was coupled to 50 μg of agarose beads using the Pierce direct immunoprecipitation kit as specified by the manufacturers (Life Technologies). Cells were lysed in NP-40 lysis buffer provided and pre-cleared with a non-specific isotype agarose control at 4° C. for 1 hour, then incubated with ˜1.5 μg agarose-coupled antibody at 4° C. overnight. Resin was washed multiple times then elution performed using non-reducing sample buffer (containing 2% w/v SDS) at 100° C. for 10 mins. Cytosolic and nuclear fractions were prepared from cells using the Pierce NE-PER cell fractionation kit (Life Technologies) as specified by the manufacturers, and total protein quantitated by BCA assay (Life Technologies) before western blot analyses.
To access whether C6orf106 binds IRF3, C6orf106-flag was co-expressed with GFP −/+ poly(I:C) as described above, then performed a direct co-immunoprecipitation with immobilised IRF3 antibodies. As shown in FIG. 10A C6orf106 could be detected in IRF3-immunoprecipitated lysates, and this was increased approximately four-fold in the presence of poly(I:C). […] Cells were lysed and subjected to […] immunoprecipitation with an anti-IRF3 antibody. IP samples and input controls were probed with anti-FLAG antibody for western blotting. […]

B1: Flag-tagged C6orf106 (C6orf106-FLAG, expressed from pCAGGs-C6-FLAG) (other)
chain: MEGMDVDLDPELMQKFSCLGTTDKDVLISEFQRLLGFQLNPAGCAFFLDMTNWNLQAAIGAYYDFESPNISVPSMSFVEDVTIGEGESIPPDTQFVKTWRIQNSGAEAWPPGVCLKYVGGDQFGHVNMVMVRSLEPQEIADVSVQMCSPSRAGMYQGQWRMCTATGLYYGDVIWVILSVEVGGLLGVTQQLSSFETEFNTQPHRKVEGNFNPFASPQKNRQSDENNLKDPGGSEFDSISKNTWAPAPDTWAPAPDQTEQDQNRLSQNSVNLSPSSHANNLSVVTYSKGLHGPYPFGQSGDYKDDDDK
notes: Over-expressed in HeLa or HEK293T cells and tested in cell lysates by co-immunoprecipitation
fold increase of C6orf106 co-immunoprecipitated with IRF3 in the presence of poly(I:C) versus without: ~4 fold

Source: patent US20180362625A1 (COMMONWEALTH SCIENTIFIC AND INDUSTRIAL RESEARCH ORGANISATION, published 2018)
